Patent US20230212319A1, “NOVEL ANTIGEN BINDING DOMAINS AND SYNTHETIC ANTIGEN RECEPTORS INCORPORATING THE SAME” (University of Southern California, priority 2020, published 2023)

Experiments:
L363 cells = assay: JNG assay, co-culture with L363 cells; format: cell-based; conditions: for NFAT-GFP ASSAY: L363: co-culture with L363
Method in brief: (§1)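 Jurkat-NFAT-GFP (JNG) cells stably expressing SAR constructs via lentiviral transduction and puromycin/blasticidin selection were cocultured with target cells at E:T ~1:2 for ~4–18 h. NFAT-driven GFP was measured by FACS versus parental JNG cells; scores +/- to 5+ denote ~5–50% GFP-positive cells.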

LNCaP cells = assay: JNG assay, co-culture with LNCaP cells; format: cell-based
Method in brief: (§2)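 Jurkat NFAT-GFP reporter cells stably expressing lentivirally transduced SARs, drug-selected where possible, were co-cultured with target cells at E:T ≈1:2 for ~4–18 h. GFP measured by FACS; scored +/- to 5+ (~5–50% GFP+ cells) above parental reporter cells.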

SKOV3-Luc cells = assay: SKOV3 xenograft in NSG mice; conditions: 1 × 10^6 SKOV3-Luc s.c., a week later 3 × 10^6 SAR-T i.v.
RAJI cells = assay: JNG assay, co-culture with RAJI cells; format: cell-based; conditions: JNG cells expressing construct, co-culture with Raji
Method in brief: as §1

RS;411 = assay: JNG assay, co-culture with RS;411 cells; format: cell-based; conditions: co-culture with RS411
Method in brief: as §1

RAJI-CD19-KO cells = assay: JNG assay, co-culture with RAJI-CD19-KO cells; format: cell-based; conditions: co-culture with Raji-CD19-KO
Method in brief: as §1

Nalm6 cells = assay: JNG assay, co-culture with Nalm6 cells; format: cell-based; conditions: co-culture with Nalm6
Method in brief: as §2

B1: 22293 (protein)
chain: MALPVTALLLPLALLLHAARPACMDPDLEIRAAFLRQRNTALRTEVAELEQEVQRLENEVSQYETRYGPLGGGKGTGGGGSGGGGSGGGGSEFDIQMTQSPSSLSASVGDRVTITCKASDHINNWLAWYQQKPGQAPKLLIYGATTLETGVPSRFSGSGSGTDYTLTISSLQPEDFATYYCQQSWNTPWTFGQGTKLEIKRLEDLKNVFPPEVAVFEPSEAEISHTQKATLVCLATGFYPDHVELSWWVNGKEVHSGVCTDPQPLKEQPALNDSRYCLSSRLRVSATFWQNPRNHFRCQVQFYGLSENDEWTQDRAKPVTQIVSAEAWGRADCGFTSESYQQGVLSATILYEILLGKATLYAVLVSALVLMAMVKRKDSRGRAKRSGSGATNFSLLKQAGDVEENPGPTSATMDWIWRILFLVGAATGAHSGPEVQLVESGGGLVQAGGSLRLSCAASGRTFSMGWFRQAPGKEREFVAAITYSGGSPYYADSVKGRFTISRDNAKNTVYLQMNSLKPEDTAVYYCAANPTYGSDWNAENWGQGTQVTVSSGSGGGGSGGGGSGGGGSFEQVQLQQPGAELVKPGASVKMSCKASGYAFSSYWINWMKQKPGQGLEWIGQIYPGDGDTNYNGKFKGRATLTADTSSSTAYMQLSSLTSEDSAVYFCARSITTVVGCAMDYWGQGTSVTVSSTRIQNPDPAVYQLRDSKSSDKSVCLFTDFDSQTNVSQSKDSDVYITDKCVLDMRSMDFKSNSAVAWSNKSDFACANAFNNSIIPEDTFFPSPESSCDVKLVEKSFETDTNLNFQNLSVIGFRILLLKVAGFNLLMTLRLWSSRAKRSGSGVKQTLNFDLLKLAGDVESNPGPSRGHMTEYKPTVRLATRDDVPRAVRTLAAAFADYPATRHTVDPDRHIERVTELQELFLTRVGLDIGKVWVADDGAAVAVWTTPESVEAGAVFAEIGPRMAELSGSRLAAQQQMEGLLAPHRPKEPAWFLATVGVSPDHQGKGLGSAVVLPGVEAAERAGVPAFLETSAPRNLPFYERLGFTVTADVEVPEGPRTWCMTRKPGA
**Q.** B1 was tested. Which “NFAT-GFP ASSAY: L363 with BCMA-FHVH-74-EZIP” value (L363 cells; L363 in presence of SAR adaptor BCMA-FHVH-74-EZIP) did it give?
**A.** +3

**Q.** And the “NFAT-GFP ASSAY: LNCaP with PSMA-USC76-chVH-EZIP” value (LNCaP cells; LNCaP in presence of SAR adaptor PSMA-USC76-chVH-EZIP)?
**A.** +5.5

B2: 10518 (protein)
chain: MALPVTALLLPLALLLHAARPEVQLVESGGGLVQPGGSLRLSCAASGYTFSDYFMSWVRQAPGKGLEWVATISNGGTYTYYPDSVKGRFTISRDNSKNTLYLQMNSLRAEDTAVYYCARFDGYIFDYWGQGTLVTVSSGGGGSGGGGSGGGGSDIQMTQSPSSLSASVGDRVTITCRASQDISNYLNWYQQKPGKAPKLLIYYTSRLHSGVPSRFSGSGSGTDFTLTISSLQPEDFATYYCQQGNTLPYTFGQGTKVEIKRTREQKLISEEDLAKPTTTPAPRPPTPAPTIASQPLSLRPEACRPAAGGAVHTRGLDFACDIYIWAPLAGTCGVLLLSLVITLYCKRGRKKLLYIFKQPFMRPVQTTQEEDGCSCRFPEEEEGGCELRVKFSRSADAPAYQQGQNQLYNELNLGRREEYDVLDKRRGRDPEMGGKPRRKNPQEGLYNELQKDKMAEAYSEIGMKGERRRGKGHDGLYQGLSTATKDTYDALHMQALPPR
modifications: Synthetic Polynucloetide
**Q.** Which “tumor inhibition / protection, SKOV3 xenograft” value (SKOV3-Luc cells) does the source give for B2 here?
**A.** weak protection

B3: 10587 (protein)
chain: MALPVTALLLPLALLLHAARPEVQLVESGGGLVQPGGSLRLSCAASGFTFSDYFMSWVRQAPGKGLEWVATISNGGTYTYYPDSVKGRFTISRDNSKNTLYLQMNSLRAEDTAVYYCARFDGYIFDYWGQGTLVTVSSGGGGSGGGGSGGGGSDIQMTQSPSSLSASVGDRVTITCRASQDISSYLNWYQQKPGKAPKLLIYYTSRLHSGVPSRFSGSGSGTDFTLTISSLQPEDFATYYCQQGNTLPYTFGQGTKVEIKRTREQKLISEEDLAKPTTTPAPRPPTPAPTIASQPLSLRPEACRPAAGGAVHTRGLDFACDIYIWAPLAGTCGVLLLSLVITLYCKRGRKKLLYIFKQPFMRPVQTTQEEDGCSCRFPEEEEGGCELRVKFSRSADAPAYQQGQNQLYNELNLGRREEYDVLDKRRGRDPEMGGKPRRKNPQEGLYNELQKDKMAEAYSEIGMKGERRRGKGHDGLYQGLSTATKDTYDALHMQALPPR
modifications: Synthetic Polynucloetide
**Q.** With B3 as the molecule, how does the “tumor inhibition / protection, SKOV3 xenograft” value (SKOV3-Luc cells) read?
**A.** weak protection

B4: 22287 (protein)
chain: MALPVTALLLPLALLLHAARPACEVQLLESGGGLIQPGGSLRLSCAASGFTFSSHAMTWVRQAPGKGLEWVSAISGSGDYTHYADSVKGRFTISRDNSKNTVYLQMNSLRAEDSAVYYCAKDEDGGSLLGHRGQGTLVTVSSGTGGGGSGGGGSGGGGSEFDIQMTQSPSSLSASVGDRVTITCKASDHINNWLAWYQQKPGQAPKLLIYGATTLETGVPSRFSGSGSGTDYTLTISSLQPEDFATYYCQQSWNTPWTFGQGTKLEIKRLEGQPKANPTVTLFPPSSEELQANKATLVCLISDFYPGAVTVAWKADGSPVKAGVETTKPSKQSNNKYAASSYLSLTPEQWKSHRSYSCQVTHEGSTVEKTVAPTECSGRADCGFTSESYQQGVLSATILYEILLGKATLYAVLVSALVLMAMVKRKDSRGRAKRSGSGATNFSLLKQAGDVEENPGPTSTMDWIWRILFLVGAATGAHSLFNQEVQIPLTESYCGPCPKNWICYKNNCYQFFDESKNWYESQASCMSQNASLLKVYSKEDQDLLKLVKSAHWMGLVHIPTNGSWQWEDGSILSPNLLTIIEMQKGDCALYASSFKGYIENCSTPNTYICMQRTVSGGGGSGGGGSGGGGDLFNQEVQIPLTESYCGPCPKNWICYKNNCYQFFDESKNWYESQASCMSQNASLLKVYSKEDQDLLKLVKSAHWMGLVHIPTNGSWQWEDGSILSPNLLTIIEMQKGDCALYASSFKGYIENCSTPNTYICMQRTVGSGGGGSGGGGSGGGGSFEQVQLQQPGAELVKPGASVKMSCKASGYAFSSYWINWMKQKPGQGLEWIGQIYPGDGDTNYNGKFKGRATLTADTSSSTAYMQLSSLTSEDSAVYFCARSITTVVGCAMDYWGQGTSVTVSSTRASTKGPSVFPLAPSSKSTSGGTAALGCLVKDYFPEPVTVSWNSGALTSGVHTFPAVLQSSGLYSLSSVVTVPSSSLGTQTYICNVNHKPSNTKVDKRVEPKSCIPEDTFFPSPESSCDVKLVEKSFETDTNLNFQNLSVIGFRILLLKVAGFNLLMTLRLWSSRAKRSGSGVKQTLNFDLLKLAGDVESNPGPSRGHMTEYKPTVRLATRDDVPRAVRTLAAAFADYPATRHTVDPDRHIERVTELQELFLTRVGLDIGKVWVADDGAAVAVWTTPESVEAGAVFAEIGPRMAELSGSRLAAQQQMEGLLAPHRPKEPAWFLATVGVSPDHQGKGLGSAVVLPGVEAAERAGVPAFLETSAPRNLPFYERLGFTVTADVEVPEGPRTWCMTRKPGA
**Q.** Which “NFAT-GFP ASSAY: Raji” value (RAJI cells) does the source give for B4 here?
**A.** 3+ (refer to approximately 5%, 10%, 20%, 30%, 40% and 50% GFP positive cells)

**Q.** And the “NFAT-GFP ASSAY: L363” value (L363 cells)?
**A.** +/- (refer to approximately 5%, 10%, 20%, 30%, 40% and 50% GFP positive cells)

**Q.** What about the “NFAT-GFP ASSAY: LNCaP with PSMA-USC76-chVH-G4S-ULBP2-S3” value (LNCaP cells; LNCaP in presence of SAR adaptor PSMA-USC76-chVH-G4S-ULBP2-S3) of the same molecule?
**A.** + (refer to approximately 5%, 10%, 20%, 30%, 40% and 50% GFP positive cells)

B5: 22178 (protein)
chain: MALPVTALLLPLALLLHAARPEVQLVESGGGVVQPGRSLRLSCAASGFSFSGYGMHWVRQAPGKGLEWVAYISYDGSNKYYADSVKGRFTISRDNSKNTLYLQMNSLRAEDTAVYYCAKDPAWGLRLGESSSYDFDIWGQGTMVTVSSGTGGGGSGGGGSGGGGSEFDIQMTQSPSSLSASVGDRVTITCKASDHINNWLAWYQQKPGQAPKLLIYGATTLETGVPSRFSGSGSGTDYTLTISSLQPEDFATYYCQQSWNTPWTFGQGTKLEIKRLEDLKNVFPPEVAVFEPSKAEIAHTQKATLVCLATGFYPDHVELSWWVNGKEVHSGVCTDPQPLKEQPALNDSRYCLSSRLRVSATFWQNPRNHFRCQVQFYGLSENDEWTQDRAKPVTQIVSAEAWGRADCGITSASYHQGVLSATILYEILLGKATLYAVLVSALVLMAMVKRKDSRGRAKRSGSGATNFSLLKQAGDVEENPGPTSATMDWIWRILFLVGAATGAHSGPQVQLQESGGGLAQAGGSLRLSCAASGRTFSMGWFRQAPGKEREFVAAITYSGGSPYYASSVRGRFTISRDNAKNTVYLQMNSLKPEDTAVYYCAANPTYGSDWNAENWGQGTQVTVSSGSGGGGSGGGGSGGGGSFEQVQLQQPGAELVKPGASVKMSCKASGYAFSSYWINWMKQKPGQGLEWIGQIYPGDGDTNYNGKFKGRATLTADTSSSTAYMQLSSLTSEDSAVYFCARSITTVVGCAMDYWGQGTSVTVSSTRIQNPDPAVYQLRDSKSSDKSVCLFTDFDSQTNVSQSKDSDVYITDKCVLDMRSMDFKSNSAVAWSNKSDFACANAFNNSIIPEDTFFPSSDVPCDVKLVEKSFETDTNLNFQNLSVIGFRILLLKVAGFNLLMTLRLWSSRAKRSGSGVKQTLNFDLLKLAGDVESNPGPSRGHMTEYKPTVRLATRDDVPRAVRTLAAAFADYPATRHTVDPDRHIERVTELQELFLTRVGLDIGKVWVADDGAAVAVWTTPESVEAGAVFAEIGPRMAELSGSRLAAQQQMEGLLAPHRPKEPAWFLATVGVSPDHQGKGLGSAVVLPGVEAAERAGVPAFLETSAPRNLPFYERLGFTVTADVEVPEGPRTWCMTRKPGA
**Q.** Which “NFAT-GFP ASSAY: RS411” value (RS;411) does the source give for B5 here?
**A.** + (refer to approximately 5%, 10%, 20%, 30%, 40% and 50% GFP positive cells)

**Q.** What about the “NFAT-GFP ASSAY: L363” value (L363 cells) of the same molecule?
**A.** +/- (refer to approximately 5%, 10%, 20%, 30%, 40% and 50% GFP positive cells)

**Q.** And the “NFAT-GFP ASSAY: LNCaP” value (LNCaP cells; co-culture with LNCaP)?
**A.** 5+ (refer to approximately 5%, 10%, 20%, 30%, 40% and 50% GFP positive cells)

**Q.** What about the “NFAT-GFP ASSAY: Raji-CD19-KO” value (RAJI-CD19-KO cells) of the same molecule?
**A.** 5+ (refer to approximately 5%, 10%, 20%, 30%, 40% and 50% GFP positive cells)

**Q.** What about the “NFAT-GFP ASSAY: Nalm6” value (Nalm6 cells) of the same molecule?
**A.** 5+ (refer to approximately 5%, 10%, 20%, 30%, 40% and 50% GFP positive cells)
